Laboratory results published in patent US20110207796A1, “ALPHA-SYNUCLEIN KINASE” (Elan Pharma International Limited, priority 2008, published 2011).

Target: human alpha-synuclein (wild-type, recombinant) (human)
Experiment: cell-based or functional assay

Chain of Polo like kinase 2 (PLK2) (enzyme) (chain): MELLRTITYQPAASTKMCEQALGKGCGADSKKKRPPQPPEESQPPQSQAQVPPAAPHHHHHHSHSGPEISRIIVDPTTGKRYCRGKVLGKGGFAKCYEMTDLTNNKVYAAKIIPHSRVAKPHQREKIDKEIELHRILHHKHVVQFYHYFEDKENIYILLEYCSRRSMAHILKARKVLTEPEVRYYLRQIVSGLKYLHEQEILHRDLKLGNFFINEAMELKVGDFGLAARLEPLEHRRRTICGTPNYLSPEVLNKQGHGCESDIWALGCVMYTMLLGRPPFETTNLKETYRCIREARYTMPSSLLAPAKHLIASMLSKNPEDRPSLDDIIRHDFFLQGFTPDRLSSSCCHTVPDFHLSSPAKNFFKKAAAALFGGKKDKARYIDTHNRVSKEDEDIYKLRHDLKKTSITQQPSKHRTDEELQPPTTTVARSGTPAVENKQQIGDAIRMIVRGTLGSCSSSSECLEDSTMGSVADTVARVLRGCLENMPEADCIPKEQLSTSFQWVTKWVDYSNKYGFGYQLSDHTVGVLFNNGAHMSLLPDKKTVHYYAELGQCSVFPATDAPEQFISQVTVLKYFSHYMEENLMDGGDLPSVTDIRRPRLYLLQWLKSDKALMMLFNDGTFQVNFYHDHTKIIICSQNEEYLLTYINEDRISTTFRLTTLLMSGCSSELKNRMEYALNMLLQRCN
Chain of G protein-coupled receptor kinase 6 (P43250 whole entry): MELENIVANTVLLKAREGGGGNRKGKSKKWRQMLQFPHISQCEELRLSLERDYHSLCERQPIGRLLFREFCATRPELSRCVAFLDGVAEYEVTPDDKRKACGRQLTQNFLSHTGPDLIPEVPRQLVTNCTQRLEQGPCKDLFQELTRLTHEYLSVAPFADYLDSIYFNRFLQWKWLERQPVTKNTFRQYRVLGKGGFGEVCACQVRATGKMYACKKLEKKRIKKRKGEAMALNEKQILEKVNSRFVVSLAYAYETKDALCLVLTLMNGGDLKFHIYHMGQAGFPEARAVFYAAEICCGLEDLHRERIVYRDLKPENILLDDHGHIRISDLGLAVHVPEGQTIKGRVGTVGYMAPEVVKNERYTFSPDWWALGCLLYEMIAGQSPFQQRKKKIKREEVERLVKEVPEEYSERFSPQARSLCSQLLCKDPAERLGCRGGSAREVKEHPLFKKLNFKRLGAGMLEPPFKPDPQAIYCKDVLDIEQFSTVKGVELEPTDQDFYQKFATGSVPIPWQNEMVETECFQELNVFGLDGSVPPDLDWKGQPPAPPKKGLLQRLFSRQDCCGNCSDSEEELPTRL
Chain of CDC7 cell division cycle 7-like 1 (O00311 whole entry): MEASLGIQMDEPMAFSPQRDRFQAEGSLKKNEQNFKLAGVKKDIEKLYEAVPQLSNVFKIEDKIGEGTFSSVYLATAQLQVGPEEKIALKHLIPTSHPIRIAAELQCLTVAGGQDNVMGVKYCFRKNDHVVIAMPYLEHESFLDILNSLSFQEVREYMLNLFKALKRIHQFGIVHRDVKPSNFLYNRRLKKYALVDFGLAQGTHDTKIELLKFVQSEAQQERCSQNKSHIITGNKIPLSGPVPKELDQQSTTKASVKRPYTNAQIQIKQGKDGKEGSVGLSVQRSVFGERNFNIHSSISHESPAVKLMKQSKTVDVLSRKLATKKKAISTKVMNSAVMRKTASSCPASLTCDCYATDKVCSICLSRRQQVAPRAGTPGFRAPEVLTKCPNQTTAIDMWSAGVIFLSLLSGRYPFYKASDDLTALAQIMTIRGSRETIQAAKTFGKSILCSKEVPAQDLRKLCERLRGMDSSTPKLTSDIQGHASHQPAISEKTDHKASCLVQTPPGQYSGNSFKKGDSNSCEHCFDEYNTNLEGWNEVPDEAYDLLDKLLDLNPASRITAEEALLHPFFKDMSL
Chain of Aortic preferentially expressed gene 1 (Q15772 other isoform, or with tags, fused parts or gaps limits assumed): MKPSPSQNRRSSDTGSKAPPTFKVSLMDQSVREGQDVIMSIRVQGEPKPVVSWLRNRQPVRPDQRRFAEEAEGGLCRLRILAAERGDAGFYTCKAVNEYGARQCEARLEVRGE

percentage of phospho-synuclein by ELISA, cDNA transfected into PEAK-Syn cells [%]	percent phospho-synuclein by ELISA, cDNA transfected into PEAK-Syn cells [%]	also measured	Substance
8.9	–	–	Aortic preferentially expressed gene 1 (from UniProt Q15772 1-113) (enzyme)
–	33.2	percent phospho-synuclein by ELISA, PLK2 alone transfected into HEK-synuclein cells: 18.6%; percent phospho-synuclein by ELISA, PLK2 and synuclein co-transfected into naive HEK cells: 60%; percent synuclein phosphorylation by ELISA, PLK2 positive control in HEK-syn cells: 65.8%; phospho-synuclein by ELISA, PLK2 cDNA transfected into 293-synuclein cells: 4.3 fold	Polo like kinase 2 (PLK2) (enzyme)
–	18.9	–	G protein-coupled receptor kinase 6 (from UniProt P43250 1-576) (enzyme)
8.9	–	–	CDC7 cell division cycle 7-like 1 (from UniProt O00311 1-574) (enzyme)
